Assay results from patent US20180320179A1, “LANOSTEROL 14-ALPHA DEMETHYLASE (CYP51) NUCLEIC ACID MOLECULES THAT CONTROL PATHOGENS” (Dow AgroSciences LLC, priority 2017, published 2018).

B1: MgCyp51-T8: dsRNA tile of Zymoseptoria tritici Cyp51, 242 bp, location 1151-1392 (nucleic acid, listed as Zymoseptoria tritici)
chain: TTCTGCGCAAGGTCAAGTCTCCCATGCCCATCGAAGGTACGGCATACGTCATTCCAACCACCCACACTCTTCTGGCCGCTCCGGGCACAACGAGCCGCATGGACGAGCACTTTCCCGACTGCCTCCATTGGGAGCCGCATCGATGGGACGAGAGCCCGTCCGAGAAATACAAGCACCTGTCCCCGACGACTGCCCTAGGAAGCATCGCCGAGGAGAAAGAAGACTATGGCTACGGCCTGGTA
B2: MgCyp51-T5: dsRNA tile of Zymoseptoria tritici Cyp51, 133 bp, location 1316-1448 (nucleic acid, listed as Zymoseptoria tritici)
chain: AATACAAGCACCTGTCCCCGACGACTGCCCTAGGAAGCATCGCCGAGGAGAAAGAAGACTATGGCTACGGCCTGGTAAGCAAGGGCGCGGCGTCGCCATACTTACCCTTTGGTGCGGGACGACACAGATGTAT
B3: MgCyp51-T6: dsRNA tile of Zymoseptoria tritici Cyp51, 280 bp, location 881-1160 (nucleic acid, listed as Zymoseptoria tritici)
chain: ATGCCATTCCCGACAAGGAGATTGCTCATATGATGATTGCGCTGCTCATGGCCGGCCAGCACTCTTCATCTGCGACCGAGTCCTGGATCACTCTCCGCCTCGCATCCCGCCCCGACATCCAAGACGAACTCCTCCAAGAACAAAAGGATATGCTCGGTGTGAACGCCGACGGCAGTATCAAGGAGCTCACATACGCCAACCTCTCGAAACTCACCCTCCTCAATCAAGTCGTCAAAGAAACCCTTCGTATTCACGCTCCAATCCACTCCATTCTGCGCAA

How the values were obtained:
[1] = test system: Zymoseptoria tritici (SEPTTR-184); experiment: Cyp51 dsRNA tile (fragment) foliar application bioassay (Example 6); format: in vivo; conditions: for ED50 (ppm) SEPTTR-184 1DP / ED80 (ppm) SEPTTR-184 1DP / Disease Control (%) SEPTTR-184 1DP: 1 day protectant; for ED50 (ppm) SEPTTR-184 1DP / ED80 (ppm) SEPTTR-184 1DP / ED50 (ppm) SEPTTR-184 3DC / ED80 (ppm) SEPTTR-184 3DC: calculated from disease control; for Disease Control (%) SEPTTR-184 1DP / Disease Control (%) SEPTTR-184 3DC: average of 2 trials; for ED50 (ppm) SEPTTR-184 3DC / ED80 (ppm) SEPTTR-184 3DC / Disease Control (%) SEPTTR-184 3DC: 3 days curative
Protocol: The 200 ppm concentration for each treatment was prepared by adding the calculated volume of the corresponding dsRNA solution in TE buffer. […] A non-target dsRNA control (YFP), a TE/phosphate buffer control, disease pressure control, and clean plant control were included.
(§1) These plants were inoculated with an aqueous spore suspension of Zymoseptoria tritici either prior to or after fungicidal treatments. After inoculation the plants were kept in 100% relative humidity to allow spores to germinate and infect the leaves. The plants were then transferred to a greenhouse set at 20° C. until disease developed.

[2] = test system: Zymoseptoria tritici (SEPTTR US-184); experiment: Cyp51 dsRNA foliar application bioassay on wheat seedlings, isolate US-184 (Example 5); format: in vivo; conditions: compared to the non-treated control; isolate not given
Protocol: RNAi (dsRNA) fungicidal solutions were prepared in TE buffer (pH 8.0), which were then mixed with 9 volumes of phosphate buffer (pH 7.5) containing an adjuvant. The fungicidal solutions were applied to wheat seedlings using an automated booth sprayer to run-off. All sprayed plants were allowed to air dry prior to further handling.
The following served as controls: adjuvant in phosphate buffer control, disease pressure control (untreated), and clean plant control (negative control).
as §1

Molecule	ED50 (ppm) SEPTTR-184 1DP [1] [ppm]	ED80 (ppm) SEPTTR-184 1DP [1] [ppm]	Disease Control (%) SEPTTR-184 1DP ([1]; rate 3.125 ppm) [%]	Disease Control (%) SEPTTR-184 1DP ([1]; rate 12.5 ppm) [%]	Disease Control (%) SEPTTR-184 1DP ([1]; rate 50 ppm) [%]	Disease Control (%) SEPTTR-184 1DP ([1]; rate 200 ppm) [%]	ED50 (ppm) SEPTTR-184 3DC [1] [ppm]	ED80 (ppm) SEPTTR-184 3DC [1] [ppm]	Disease Control (%) SEPTTR-184 3DC ([1]; rate 3.125 ppm) [%]	Disease Control (%) SEPTTR-184 3DC ([1]; rate 12.5 ppm) [%]	Disease Control (%) SEPTTR-184 3DC ([1]; rate 50 ppm) [%]	Disease Control (%) SEPTTR-184 3DC ([1]; rate 200 ppm) [%]	control of Septoria leaf blotch on wheat seedlings [2]
B1	5.208	>200	46	64	65	74	<3.125	>200	61	68	73	73	control Septoria leaf blotch
B2	<3.125	>200	61	66	70	77	<3.125	>200	52	64	68	78	control Septoria leaf blotch
B3	3.125	>200	50	55	71	74	29.167	>200	48	46	55	61	control Septoria leaf blotch
